Test results from the DeepSol protein solubility set.

Assay: soluble on expression in E. coli; label from the status in PepcDB or PDB records
With “MHHHHHHSSGVDLGTENLYFQSMKQYEHVTRDLNPEDFWEIIGELGDGAFGKVYKAQNKETSVLAAAKVIDTKSEEELEDYMVEIDILASCDHPNIVKLLDAFYYENNLWILIEFCAGGAVDAVMLELERPLTESQIQVVCKQTLDALNYLHDNKIIHRDLKAGNILFTLDGDIKLADFGVSAKNTRTIQRRDSFIGTPYWMAPEVVMCETSKDRPYDYKADVWSLGITLIEMAEIEPPHHELNPMRVLLKIAKSEPPTLAQPSRWSSNFKDFLKKCLEKNVDARWTTSQLLQHPFVTVDSNKPIRELIAEAKAEVTEEVEDGKE” the “soluble on expression in E. coli” value was “soluble”.
With “MSGAAAASAAGYDRHITIFSPEGRLYQVEYAFKATNQTNINSLAVRGKDCTVVISQKKVPDKLLDPTTVSYIFCISRTIGMVVNGPIPDARNAALRAKAEAAEFRYKYGYDMPCDVLAKRMANLSQIYTQRAYMRPLGVILTFVSVDEELGPSIYKTDPAGYYVGYKATATGPKQQEITTNLENHFKKSKIDHINEESWEKVVEFAITHMIDALGTEFSKNDLEVGVATKDKFFTLSAENIEERLVAIAEQD” the “soluble on expression in E. coli” value was “soluble”.
With “MMKDAVVITVGNEVLKGRTVNTNASFIGNFLTYQGYRVKLGLTVMDDLEDISWAFKTAMDRGDVIVSSGGLGPTFDDMTVEGFAKAIGSDNKLNQDALAMIEEKYKNIEITPERKKMAMMPEVCKPIRNPVGTAPGLLCSVGGKKVVILPGVPMEMQALLESMRDSLAIENSCYFDESINITGIMESTFAPYVERVMREVDGVYVKSHPKNIEVVNPSLEIEVSAYDVSQEAARKKVKDAIARIRAYAETILDSKDK” the “soluble on expression in E. coli” value was “not soluble”.
For “MYAMNLARYKYCPDIKEKGLSGSPRLILFTSAECHYSMKKAASFLGIGTENVCFVETDGRGKMIPEELEKQVWQARKEGAAPFLVCATSGTTVLGAFDPLDEIADICERHSLWLHVDASWGGSALMSRKHRKLLHGIHRADSVAWNPHKMLMAGIQCCALLVKDKSDLLKKCYSAKASYLFQQDKFYDVSYDTGDKSIQCSRRPDAFKFWMTWKALGTLGLEERVNRALALSRYLVDEIKKREGFKLLMEPEYANICFWYIPPSLREMEEGPEFWAKLNLVAPAIKERMMKKGSLMLGYQPHRGKVNFFRQVVISPQVSREDMDFLLDEIDLLGKDM”, the “soluble on expression in E. coli” value was “soluble”.
In the case of “MRRKETLQETPLTYQELASKILPELHLLAQEAGIEGYKRMKKDQLIMALLERQTQGEGLRLVKGYLEISQDGYGFLTENLHNLESRVAIVSAGLIKQYALRAGDYVVGQARPPRENERYATLLKVEAVNNLDPEAAKNRPRFDELTPQFPDRQIRLETTPDELSTRVIDLLAPIGRGQRGLIVAPPKAGKTTLLKKIANAVLKNEPDIKVIVLLIDERPEEVTDFRESVQGAEVIASTFDEPPQNHIRVAEFVHERAKRIVEEGGHVMILLDSITRLARANNLVTPPTGRTLSGGLDSAALYFPKRFLGAARNIRGGGSLTILATALVETGSRMDDVIFEEFKGTGNMELHLSRRLEERRIFPAIDILKSGTRREELLLGEEVTHKMWLLRKVLADMDPAEAMEMLLARLARTKNNKEFLASLAAR”, the “soluble on expression in E. coli” value is reported as “soluble”.
With “MSELFSERIPPQSIEAEQAVLGAVFLDPAALVPASEILIPEDFYRAAHQKIFHAMLRVADRGEPVDLVTVTAELAASEQLEEIGGVSYLSELADAVPTAANVEYYARIVEEKSVLRRLIRTATSIAQDGYTREDEIDVLLDEADRKIMEVSQRKHSGAFKNIKDILVQTYDNIEMLHNRDGEITGIPTGFTELDRMTSGFQRSDLIIVAARPSVGKTAFALNIAQNVATKTNENVAIFSLEMSAQQLVMRMLCAEGNINAQNLRTGKLTPEDWGKLTMAMGSLSNAGIYIDDTPSIRVSDIRAKCRRLKQESGLGMIVIDYLQLIQGSGRSKENRQQEVSEISRSLKALARELEVPVIALSQLSRSVEQRQDKRPMMSDIRESGSIEQDADIVAFLYRDDYYNKDSENKNIIEIIIAKQRNGPVGTVQLAFIKEYNKFVNLERRFDEAQIPPGA” the “soluble on expression in E. coli” value was “soluble”.
With “MLSKPMELLRPSKGMINVHPIQRGGILTEEARKVLLEWGDGYSMCDICLEGRVDLLDKPPVKRFKEEVAEFLGMDEVRFTAGARHAKFVAMSGFKGALVVDSLAHYTTYIAAELNGLRVYEVPNTGYPEFRIEAESYTDVFEKVKEETGDYPAVALLTHADYKYGNLADAKKVAEICRDYGIPLILNTAYTSGIMEVSGRETGCDFIVASGHKSWAATAPIGILATTFEFAERVFRVSEVRGNWSGRAFTKKEVALFGCSPVYGLPLVTLMASFPVVKERVKRWKEEVEKARWFVEEMEKIEGVMLLGERPKNHTLMNFETPSFNLIAKKHRRKGYFLYHELKERGIFGVQPGMTRNVKLNVYGLSWEEVERVAEAFKEIAEKYGLEVED” the “soluble on expression in E. coli” value was “not soluble”.
For “MIHEITLDGKIVRYKVVEKPVKYVTLRFLEDGTLLVVTPSKEIVREVLIKKRNWILSKLSIIEEAKELAGEGFPLFGRFYSLEIGEKFEIDDKNRIIIYPGIDVLRDWIKKEVKRRAQEISKEFGVAPKRIYVRVMKTKWGSTTWRKSVTLNLSSVALPEELFHYLVIHELAHLIELNHSKRFWSIVARYHPDYKEKRRELKKWWFIVHLNETWRAILQWPGGGSSSSWALEHHHHHH”, the “soluble on expression in E. coli” value was “soluble”.
For “MKHQHQHQHQHQHQQPLNEEFRPEMLQGKKVIVTGASKGIGREMAYHLAKMGAHVVVTARSKETLQKVVSHCLELGAASAHYIAGTMEDMTFAEQFVAQAGKLMGGLDMLILNHITNTSLNLFHDDIHHVRKSMEVNFLSYVVLTVAALPMLKQSNGSIVVVSSLAGKVAYPMVAAYSASKFALDGFFSSIRKEYSVSRVNVSITLCVLGLIDTETAMKAVSGIVHMQAAPKEECALEIIKGGALRQEEVYYDSSLWTTLLIRNPSRKILEFLYSTSYNMDRFINK”, the “soluble on expression in E. coli” value was “soluble”.
With “MITVVGGTFSKLHKGHKALLNTAIDTGNEVVIGLTSDEYVKKNKVYPAIPYSVRYRTLYNYMIKRTNKFRIRQIDDRNGNAPYEKDYEVIVVSPETYPRSLKINEIRISNGLPPLKIIRVPYVLAQDLFPISSTRIINGEID” the “soluble on expression in E. coli” value was “not soluble”.
With “MRKICCLLFAVFILCISASCYQRKETRISQPVIMPAIQSPEDIDDYIGEKGYEILESKGKTEEYTLDKKRVYNNWQIWAVQYPEPDHYLGKEISIYSYIIRNHPLDDKSPNKKTYLSVMICENTIIGGYSSPYYEEKDISLVPIGGVYSLEGKNFEEIKNINFDRWRKRFIKKYE” the “soluble on expression in E. coli” value was “not soluble”.
With “MANVAFGFQEAVFTLESMVANIERQAQTIEKLINENKQLRQENQQLKARIAELEARTKKNSTNSHFPPSSDRFGAKSPSRPPSEKRPGGQPGHQGTTLRQSPNPDHRVLHRVTQCKGCGHSLEHIDPLQVDIRQVFDLPVVRMEVTQHEREIKRCPECRLVQQAEFPFYVTNHVQYGPAVTSLILYWNHAQLIPCERVTEMVKALTGHSMSAGTVVNMTRRWQPVAEAAIEEIEAALLTSSTLHVDETSLRVKGTKQWVHVASTSKETRYGIHRSRGKQATDDIGILPRYKGTMVHDAYAVYPMYTQASHALCHAHHLRELREYTELYHHSWSNKMAEALLEMKQAVEKAGGALPEEKVRYWEAVYDELLSNGRQELDERCRQGNYLGVRKAEHFIRRLEKRKQEALLFLRKKEVPFDNNQAERDLRMVKVKQKISGTFRQEDDAEAFCVIRSVVSTLQKHGKPVWESLQRLLSGESLQTILQSS” the “soluble on expression in E. coli” value was “not soluble”.
In the case of “MKKETLYVAFSTQKGGVGKTTFTVLVASYLYYLKGYNVAVVDCDYPQHSISAMRKRDAEQVNGDDYYKQLAFSQFKTLGKKAYPVLCSSPDEAIKTADEFLASAGSDYDVVFFDLPGTVNSEGVINSLSGVDYIFTPIAADRVVLESSLSFAVAINKLLVKNEACRLKGLHLFWNMVDGREKTDLYTLYEQTIGELELPLMKVFIPDTKRFKKELDAQRKTVFRSTLFPADKRLVKGSNIEELITEIAYLIKL”, the “soluble on expression in E. coli” value is reported as “soluble”.
For “MSLTYLNHILVIEDDLDAAESLSDMLSIDGFQITTTASVQDAMELLESQRFGVILTDRHLPDGLIEHRLQEILEVSSKTPVIVVTGYSDLQAVILAFRQGISDYVIKPIIPEDLIQTVRRILERRVLEQHLQIEHAFAERIQSTAEAIILVIDFDGRVIHFNRFFTELTGWAQGDLIGENWFDRCIYPEDRDRLINVCDTMSRTDRYRGCTNRIRCKNGEAREIRWSNSKWSEADGGQQFILAIGIDVSDLAEATQRAVRAERLAAIGETVAALAHESRNAIQRINAASEVLAINIRGNVDSEEELSVVQRAASDLSTLLESVRAFAAPIQAKLECADLREIWRRSWDDLECKRSGRDVELVENATSCLHDVKVDVCRMEQLFRNLFLNALEASEGPVRIEIDCECNDEMVCLKVTDDGPGLTAEQSAHLFEPFYTTKPTGTGLGMPICQRIVEAHGGTIAAGNHLNGTEVAICVPRVKAAVLVSEGHHHHHH”, the “soluble on expression in E. coli” value was “soluble”.
With “SLLLCDIGNSNANFLDDNKYFTLSIDQFLEFKNEQKIFYINVNEHLKEHLKNQKKFINLEPYFLFDTIYQGLGIDRIAACYTIEDGVVVDAGSAITIDIISNSIHLGGFILPGIANYKKIYSHISPRLKSEFNTQVSLDAFPQKTMDALSYGVFKGIYLLIKDAAQNKKLYFTGGDGQFLANYFDHAIYDKLLIFRGMKKIIKENPNLLY” the “soluble on expression in E. coli” value was “soluble”.
For “MAEEKFFLGRQPILDREQRLYGFELLFRSADSLHANVTDYLQASASVIFDALSSFGFREILGKHKGFINVNADVLMSEALELLPPEKVVIELLEHVPITETVISRCHELREKGFSLALDDHIYEPVYEPLYHLVDVIKVDLFRTGMENLASEVETLRKWNTKLLAEKVETVEQYERCADLGFTYFQGYYFARP”, the “soluble on expression in E. coli” value was “not soluble”.
In the case of “MGSDKIHHHHHHMYEDELIFLEKTASIDIFEYSEQGIKTILDSPKHYNHGLMIRAAKLSREGFYSLVKYNSSYMLLVPLAKDKGLILSPKIDSLNNSESSFSNIDFINHSTSLAELAYFLYTKESAPNWNRVIYNLNEISDPVKQVQPMKNLHAFHRYANKMVDYFAQLDDKKFKLYINKMKSCQVFGDTLTTSNVIRGEKDILIDIISKLTDRSEKEGLPFEKVVFIQSVSVQKIELQANILNFNGWLEEIPYAYFNELKKWRENLFIDKADKIERYLKLNSRENIKLKDISKELGISEQSLNTIFKKKYGMTTKKYLIELKIENDKELLTTTELKIHDISEYLSFIDESYFISTFNKSCGMTPSKYRQNYIDKLLNKKSV”, the “soluble on expression in E. coli” value is reported as “not soluble”.
For “MKAVKATLMYDGLGNIEKNVYIIFDKDIVNITREKPKDVEVVAEGVVTPAFIDAHSHIGMDRYGEPYQESELNEQMDSVLPLADALYSIYMDDKAFKHSIEFGVLYSSILPGSGNIIGGKGVLIRNYGRDIEDAFIKYVGVKAAFGYNPRSTTNWKGLRPSTRMGAIGILFNWLIKTKKTISLLEKGKKDPEEIDPVIEALIPVLKGEMPLRVHAHKEDDIAVLLMIKRKFNLKVTVEHAADVHSKETFEKIKREGVPLVYGPLDAHPYKVELKHEDWKNAKYLLEVKPFFGLMSDHPFSIQANLYLQLRHFIRLGMSKAEAIKLITYNNAKILGIEDKLGSLEKGKWASLVVWNGDPFNLENYPTHVFAEGELIHEANL”, the “soluble on expression in E. coli” value was “soluble”.
For “MVRIEVIDIEKPEGVEVIIGQGNFSIFTVDDLARALLTAVPGIKFGIAMNEAKPQLTRYTGNDPELEALAAKNAVKIGAGHVFVILMKNAYPINVLNTIKNHPAVAMIYGASENPFQVIVAETELGRAVIGVVDGKAANKIETDEQKKERRELVEKIGYKID”, the “soluble on expression in E. coli” value was “soluble”.
